Reference: US11542537B2, “High-purity steviol glycosides” (PureCircle Sdn Bhd, priority 2012, dated 2023)

B1: S115N01 A1: UDP-glucosyltransferase Os03g0702500, Oryza sativa Japonica Group, SEQ ID 3 (protein, listed as Oryza sativa)
chain: MDDAHSSQSPLHVVIFPWLAFGHLLPCLDLAERLAARGHRVSFVSTPRNLARLPPVRPELAELVDLVALPLPRVDGLPDGAEATSDVPFDKFELHRKAFDGLAAPFSAFLDTACAGGKRPDWVLADLMHHWVALASQERGVPCAMILPCSAAVVASSAPPTESSADQREAIVRSMGTAAPSFEAKRATEEFATEGASGVSIMTRYSLTLQRSKLVAMRSCPELEPGAFTILTRFYGKPVVPFGLLPPRPDGARGVSKNGKHDAIMQWLDAQPAKSVVYVALGSEAPMSADLLRELAHGLDLAGTRFLWAMRKPAGVDADSVLPAGFLGRTGERGLVTTRWAPQVSILAHAAVCAFLTHCGWGSVVEGLQFGHPLIMLPILGDQGPNARILEGRKLGVAVPRNDEDGSFDRGGVAGAVRAVVVEEEGKTFFANARKLQEIVADREREERCIDEFVQHLTSWNELKNNSDGQYP
B2: S115N06 E1: hypothetical protein OsJ_04191, Oryza sativa Japonica Group, SEQ ID 6 (protein, listed as Oryza sativa)
chain: MHVVMLPWLAFGHILPFAEFAKRVARQGHRVTLFSTPRNTRRLIDVPPSLAGRIRVVDIPLPRVEHLPEHAEATIDLPSNDLRPYLRRAYDEAFSRELSRLLQETGPSRPDWVLADYAAYWAPAAASRHGVPCAFLSLFGAAALCFFGPAETLQGRGPYAKTEPAHLTAVPEYVPFPTTVAFRGNEARELFKPSLIPDESGVSESYRFSQSIEGCQLVAVRSNQEFEPEWLELLGELYQKPVIPIGMFPPPPPQDVAGHEETLRWLDRQEPNSVVYAAFGSEVKLTAEQLQRIALGLEASELPFIWAFRAPPDAGDGDGLPGGFKERVNGRGVVCRGWVPQVKFLAHASVGGFLTHAGWNSIAEGLANGVRLVLLPLMFEQGLNARQLAEKKVAVEVARDEDDGSFAANDIVDALRRVMVGEEGDEFGVKVKELAKVFGDDEVNDRYVRDFLKCLSEYKMQRQG
B3: S115N06 C2: UDP-glucoronosyl/UDP-glucosyl transferase family protein, Arabidopsis lyrata subsp. lyrata, SEQ ID 7 (protein, listed as Arabidopsis lyrata)
chain: MDDKKEEVMHIAMFPWLAMGHLLPFLRLSKLLAQKGHKISFISTPRNILRLPKLPSNLSSSITFVSFPLPSISGLPPSSESSMDVPYNKQQSLKAAFDLLQPPLTEFLRLSSPDWIIYDYASHWLPSIAKELGISKAFFSLFNAATLCFMGPSSSLIEESRSTPEDFTVVPPWVPFKSTIVFRYHEVSRYVEKTDEDVTGVSDSVRFGYTIDGSDAVFVRSCPEFEPEWFSLLQDLYRKPVFPIGFLPPVIEDDDDDTTWVRIKEWLDKQRVNSVVYVSLGTEASLRREELTELALGLEKSETPFFWVLRNEPQIPDGFEERVKGRGMVHVGWVPQVKILSHESVGGFLTHCGWNSVVEGIGFGKVPIFLPVLNEQGLNTRLLQGKGLGVEVLRDERDGSFGSDSVADSVRLVMIDDAGEEIREKVKLMKGLFGNMDENIRYVDELVGFMRNDESSQLKEEEEEDDCSDDQSSEVSSETDEKELNLDLKEEKRRISVYKSLSSEFDDYVANEKMG
B4: UGTLB: Lycium barbarum UDP-glucosyltransferase GI_209954733, SEQ ID 10, E. coli lysate (protein, listed as Escherichia coli)
chain: MGTEVTVHKNTLRVLMFPWLAYGHISPFLNVAKKLVDRGFLIYLCSTAINLKSTIKKIPEKYSDSIQLIELHLPELPELPPHYHTTNGLPPHLNHTLQKALKMSKPNFSKILQNLKPDLVIYDLLQQWAEGVANEQNIPAVKLLTSGAAVLSYFFNLVKKPGVEFPFPAIYLRKNELEKMSELLAQSAKDKEPDGVDPFADGNMQVMLMSTSRIIEAKYIDYFSGLSNWKVVPVGPPVQDPIADDADEMELIDWLGKKDENSTVFVSFGSEYFLSKEDREEIAFGLELSNVNFIWVARFPKGEEQNLEDALPKGFLERIGDRGRVLDKFAPQPRILNHPSTGGFISHCGWNSVMESVDFGVPIIAMPIHLDQPMNARLIVELGVAVEIVRDDYGKIHREEIAEILKDVIAGKSGENLKAKMRDISKNLKSIRDEEMDTAAEELIQLCKNSPKLK
B5: UGTSL2: Solanum lycopersicum UDP-glucosyltransferase GI_460410132, SEQ ID 9, E. coli lysate (protein, listed as Escherichia coli)
chain: MATNLRVLMFPWLAYGHISPFLNIAKQLADRGFLIYLCSTRINLESIIKKIPEKYADSIHLIELQLPELPELPPHYHTTNGLPPHLNPTLHKALKMSKPNFSRILQNLKPDLLIYDVLQPWAEHVANEQNIPAGKLLTSCAAVFSYFFSFRKNPGVEFPFPAIHLPEVEKVKIREILAKEPEEGGRLDEGNKQMMLMCTSRTIEAKYIDYCTELCNWKVVPVGPPFQDLITNDADNKELIDWLGTKHENSTVFVSFGSEYFLSKEDMEEVAFALELSNVNFIWVARFPKGEERNLEDALPKGFLERIGERGRVLDKFAPQPRILNHPSTGGFISHCGWNSAMESIDFGVPIIAMPIHNDQPINAKLMVELGVAVEIVRDDDGKIHRGEIAETLKSVVTGETGEILRAKVREISKNLKSIRDEEMDAVAEELIQLCRNSNKSK
B6: S115N01 G2: UDP-glycosyltransferase, Avena strigosa, SEQ ID 4 (protein, listed as Avena strigosa)
chain: MAVKDEQQSPLHILLFPFLAPGHLIPIADMAALFASRGVRCTILTTPVNAAIIRSAVDRANDAFRGSDCPAIDISVVPFPDVGLPPGVENGNALTSPADRLKFFQAVAELREPFDRFLADNHPDAVVSDSFFHWSTDAAAEHGVPRLGFLGSSMFAGSCNESTLHNNPLETAADDPDALVSLPGLPHRVELRRSQMMDPKKRPDHWALLESVNAADQKSFGEVFNSFHELEPDYVEHYQTTLGRRTWLVGPVALASKDMAGRGSTSARSPDADSCLRWLDTKQPGSVVYVSFGTLIRFSPAELHELARGLDLSGKNFVWVLGRAGPDSSEWMPQGFADLITPRGDRGFIIRGWAPQMLILNHRALGGFVTHCGWNSTLESVSAGVPMVTWPRFADQFQNEKLIVEVLKVGVSIGAKDYGSGIENHDVIRGEVIAESIGKLMGSSEESDAIQRKAKDLGAEARSAVENGGSSYNDVGRLMDELMARRSSVKVGEDIIPTNDGL

What was measured:
Assay type in all cases: biochemical
[1] = Catalytic test of in-vitro expressed UDP-glucosyltransferases, Rebaudioside A to Rebaudioside D (HPLC CAD); details: 0.5 mM Rebaudioside A, 30° C., T24h sample; for Steviol glycoside conversion in reaction mixture: Reb A: remaining substrate; for Steviol glycoside conversion in reaction mixture: Reb UNK: Reb UNK later identified as reb D2
Method: 18 μL of plasmid solution (containing approximately 1.5 μg of plasmid) was used for in-vitro expression according to the Promega S30 T7 High-Yield Protein Expression System (ref: L1110) kit. The expression medium was produced as follows:
The prepared expression medium mix was added to the plasmid solution and the solution was allowed to incubate at 30° C. for 3 hours while mixing the mixture every 45 minutes. 5 μL of the mixture was frozen whereas the remainder was used for the catalytic test for the conversion of Rebaudioside A to Rebaudioside D.
(§1) 430 μL of a reaction mixture containing 0.5 mM Rebaudioside A, 3 mM MgCl2, 50 mM phosphate buffer (pH7.2) and 2.5 mM UDP-glucose was added to a 1.5 mL sterile microtube. 52 μL of the enzyme expression medium was added and the resulting mixture was allowed to react at 30° C. for 24 hours. 125 μL samples were taken after 2 hours, 16 hours and 24 hours and added to a 115 μL of 60% methanol and 10 μL of 2 N H2SO4. The quenched sample was centrifuged at 18,000 g for 2 minutes at RT. 200 μL was transferred to an HPLC vial and analyzed.
The HPLC assay was performed as follows:
as §1, with “RT.” for “RT. 200 μL was transferred to an HPLC vial and analyzed.”
The HPLC assay was performed as described in EXAMPLE 20.

[2] = LCMS of Rubusoside conversion products with UGTSL, UGTSL2, UGTLB; details: UGTSL2 2 hrs, UGTLB 5 hrs, UGTSL 45 hrs
Method: (§2) Conversion of stevioside with UGTSL and UGTSL2 was conducted in similar manner to Example 28, and the conversion of rubusoside with UGTSL and UGTSL2 was conducted similarly to Example 29. Conversions of rubusoside and stevioside with UGTLB was conducted similarly to Example 32.
(§3) The reaction mixtures were analyzed by LCMS to determine all reaction products.

[3] = LCMS of Stevioside conversion products with UGTSL, UGTSL2, UGTLB; details: UGTSL2 2 hrs, UGTLB 2 hrs, UGTSL 22 hrs
Method: as §2, §3

[4] = Activity for Rubusoside to Rebaudioside E conversion (UGTSL, UGTSL2, UGTLB lysates); details: based on initial concentration of Rubusoside; reaction time 45 h. (UGTSL), 2 h. (UGTSL2)
Method: Activity tests were performed at 3 mL scale with 600 μL of lysate for the transformation of Rubusoside using 0.5 mM of substrate, 2.5 mM of UDP-Glucose and 3 mM MgCl2 in 50 mM Sodium Phosphate buffer at pH 7.2. The HPLC assay was performed as described in EXAMPLE 20.
Activity tests were performed at 3 mL scale with 600 μL of lysate for the transformation of Rubusoside using 0.5 mM of substrate, 2.5 mM of UDP-Glucose and 3 mM MgCl2 in 50 mM Sodium Phosphate buffer at pH 7.2. Samples were taken and analyzed by HPLC. The corresponding chromatogram is depicted in FIG. 65.

Molecule	Steviol glycoside conversion in reaction mixture: Reb D [1]	Steviol glycoside conversion in reaction mixture: Reb A [1]	Steviol glycoside conversion in reaction mixture: Reb UNK [1]	LC-MS, peak area ratio (%) Reb D [2]	LC-MS, peak area ratio (%) Reb E [2]	LC-MS, peak area ratio (%) Rub [2]	LC-MS, peak area ratio (%) Unknown peak #1 (MW804) RT 30.70 min [2]	LC-MS, peak area ratio (%) Unknown peak #2 (MW804) RT 49.50 min [2]	LC-MS, peak area ratio (%) Unknown peak #3 (MW804) RT 50.40 min [2]	LC-MS, peak area ratio (%) Reb E [3]	LC-MS, peak area ratio (%) Stev [3]	LC-MS, peak area ratio (%) Unknown peak #2 (MW966) RT = 26.50 min [3]	further results
B1	2.1 % area	96.7 % area											
B2	0.14 % area	92.8 % area	7.0 % area										
B3	0.28 % area	95.8 % area	3.9 % area										
B4				1.29%	9.21%	13.49%	4.07%	66.67%	5.27%	3.12%	43.11%	53.78%	
B5				6.73%	52.88%	3.54%	12.02%	9.94%	12.77%	42.56%	20.01%	5.56%	Rubusoside conv. (reactiontime) [4]: 80% (2 h.); LC-MS, peak area ratio (%) Stev [2]: 2.12%; LC-MS, peak area ratio (%) Reb D [3]: 1.70%; LC-MS, peak area ratio (%) Unknown peak #1 (MW966) RT = 22.60 min [3]: 4.48%; LC-MS, peak area ratio (%) Unknown peak #3 (MW966) RT = 29.50 min [3]: 25.70%
B6	0.6 % area	99.4 % area											
